Test results: article PMC4873810

Molecular target: mouse embryonic heparan sulfate (HS) coupled to HiTrap column
Test: HS affinity chromatography (FPLC)
Settings: 0-1.5 M NaCl gradient from fraction 5 to 14, parent: est. 100, read off a plot
[1] = value is the height of the salt-eluted peak at fraction 12

Row | response [1] | response (value is the height of the salt-eluted peak at about fraction 12) | Substance
1 | 11% |  | Scube2 (signal peptide, CUB domain, epidermal growth factor (EGF)-like protein 2), full-length, FLAG-tagged (from UniProt Q9NQ36) K608A; R609A; K612A; R613A; R615A; K616A; R619A; R622A; K623A; H626A; R627A; K643A; K644A; R647A
2 | 4% |  | Scube2 (signal peptide, CUB domain, epidermal growth factor (EGF)-like protein 2), full-length, FLAG-tagged (from UniProt Q9NQ36) K608E; R609E; K612E; R613E; R615E; K616E; R619E; R622E; K623E; H626E; R627E
3 |  | 5% | Spacer (isolated Scube2 spacer domain) K608A; R609A; K612A; R613A; R615A; K616A; R619A; R622A; K623A; H626A; R627A; K643A; K644A; R647A
